Test [1] deals with pre-phosphorylated His10-BTLA ICD (aa 190-289) triple-tyrosine-mutant FFFY (human) (UniProt Q7Z6A9). The experiment in a line: SPR; OpenSPR (Nicoya); pre-phosphorylated His10-tagged PD-1 ICD or BTLA ICD tyrosine mutant immobilised on a Ni sensor chip (about 1500 RU); SH2 injected at 20-1000 nM, 20 ul/min; 20 mM HEPES, 150 mM NaCl, 5 mM imidazole, 0.05% Tween-20, 10% glycerol, pH 7.5; equilibrium fit ('Evaluate EC50', TraceDrawer); three independent repeats on different chips. For orientation: SPR reads the build-up and loss of mass on a sensor chip optically.

For test [2], the target named is pre-phosphorylated His10-PD-1 ICD (aa 194-288) PD-1^FY (human) (UniProt Q15116). The description is as above.
Test [3] deals with pre-phosphorylated His10-BTLA ICD (aa 190-289) triple-tyrosine-mutant FFYF (human) (UniProt Q7Z6A9). Described as above.
In test [4] the target is His10-BTLA^ICD BTLA^FFYF, pre-phosphorylated (human) (UniProt Q7Z6A9). The experiment in a line: SPR; OpenSPR (Nicoya); pre-phosphorylated His10-tagged PD-1 or BTLA ICD immobilised on a Ni sensor chip (about 1500 RU); SH2 injected at 20-1000 nM, 20 μl/min; 20 mM HEPES, 150 mM NaCl, 5 mM imidazole, 0.05% Tween-20, 10% glycerol, pH 7.5; equilibrium analysis (Evaluate EC50, TraceDrawer).

Test [5] has as its target pre-phosphorylated His10-PD-1 ICD (aa 194-288) PD-1^YF (human) (UniProt Q15116). The test is described as follows: SPR; OpenSPR (Nicoya); pre-phosphorylated His10-tagged PD-1 ICD or BTLA ICD tyrosine mutant immobilised on a Ni sensor chip (about 1500 RU); SH2 injected at 20-1000 nM, 20 ul/min; 20 mM HEPES, 150 mM NaCl, 5 mM imidazole, 0.05% Tween-20, 10% glycerol, pH 7.5; equilibrium fit ('Evaluate EC50', TraceDrawer); three independent repeats on different chips.

For test [6], the target named is His10-PD-1^ICD PD-1^YF, pre-phosphorylated (human) (UniProt Q15116). The experiment in a line: SPR; OpenSPR (Nicoya); pre-phosphorylated His10-tagged PD-1 or BTLA ICD immobilised on a Ni sensor chip (about 1500 RU); SH2 injected at 20-1000 nM, 20 μl/min; 20 mM HEPES, 150 mM NaCl, 5 mM imidazole, 0.05% Tween-20, 10% glycerol, pH 7.5; equilibrium analysis (Evaluate EC50, TraceDrawer).

Test [7] has as its target His10-PD-1^ICD PD-1^FY, pre-phosphorylated (human) (UniProt Q15116). Described as above.

Drawing on paper PMC8631942, this text covers Kd for seven substances.

“And” between values parts separate entries of the source, which are not always exact repeats. Identical values can stand only once.

Regarding “SNAP-SHP1-cSH2 (from UniProt P29350 1-595) (domain or fragment)”, the equilibrium dissociation constant (Kd) (as a rule, a measure of binding affinity in units of concentration) in test [1] was 760 nM and 1200 nM and 610 nM; in test [2], 1100 nM and 660 nM and 3200 nM; in test [3], 2000 nM and 1600 nM.

As for SNAP-SHP1-nSH2 (domain or fragment), the Kd in test [4] stood at 64 nM.

In the case of “SNAP-SHP1-nSH2 (from UniProt P29350 1-595) (domain or fragment)”, the Kd was 200 nM and 210 nM and 400 nM in test [5]; 72 nM and 110 nM and 88.3 nM in test [2]; 50 nM and 73 nM and 68 nM in test [3].

Consider SNAP-SHP2-cSH2 (domain or fragment), for which the Kd in test [6] stood at 1400 nM; in test [7], 100 nM.

For “SNAP-SHP2-cSH2 (from UniProt Q06124 1-593) (domain or fragment)”, the Kd was 1900 nM and 770 nM and 1400 nM in test [5]; 83 nM and 77 nM and 130 nM in test [2].

Consider SNAP-SHP2-nSH2 (domain or fragment), for which the Kd was found to be 380 nM in test [6] and 140 nM in test [7].

As for “SNAP-SHP2-nSH2 (from UniProt Q06124 1-593) (domain or fragment)”, the Kd in test [5] was 270 nM and 420 nM and 460 nM; in test [2], 120 nM and 110 nM and 200 nM; in test [3] it was 430 nM and 270 nM.
